Test results: patent US20170145069A1 (Novo Nordisk, published 2017)
Where a chain is given by its changes, count along the chain named. *1 amine or outer side, *2 acyl side, *3 side chain or, on linkers, in order; H or OH if unused. Where no end group is shown, it is not given here. Side-chain parts run from the residue outwards. [ ]: non-standard residue; d: D form. The star is where a group is joined. Dodecanoyl(12-OPh(4-COOH)) = O=C(O)c1ccc(OCCCCCCCCCCCC(=O)*)cc1; Undecanoyl(11-OPh(4-COOH)) = O=C(O)c1ccc(OCCCCCCCCCCC(=O)*)cc1; Decanoyl(10-(4-HOOC-PhO)) = O=C(O)c1ccc(OCCCCCCCCCC(=O)*)cc1; γGlu = O=C(O)[C@H](CCC(=O)[*:2])N[*:1]; εLys = N[C@@H](CCCCN[*:1])C(=O)[*:2]; 13‑carboxytridecanoyl = C14 diacid; AEEA = NCCOCCOCC(=O)O; Aib = CC(C)(N)C(=O)O

B1: Comparative compound of Example 22a: Compound of Example 141, Chem. 189, in WO 2012/062803 (peptide)
peptide: H[Aib]EGTFTSDVSK([AEEA-AEEA-γGlu-13‑carboxytridecanoyl])YLEGQAAK([AEEA-AEEA-γGlu-13‑carboxytridecanoyl])EFIAWLVQGRG
B2: GLP-1 derivative of Example 5 (Chem. 24), N^eps18,N^eps26-diacylated [Lys^18,Glu^22,Gln^34]-GLP-1-(7-37)-peptide (peptide)
peptide: HAEGTFTSDVSK([Gly-Ser-Ser-Gly-Ser-Ser-γGlu-Decanoyl(10-(4-HOOC-PhO))])YLEEQAAK([Gly-Ser-Ser-Gly-Ser-Ser-γGlu-Decanoyl(10-(4-HOOC-PhO))])EFIAWLVQGRG
B3: GLP-1 derivative of Example 17 (Chem. 36), N^eps18,N^eps26-diacylated [Aib8,Lys18,Gln^34]-GLP-1-(7-37)-peptide (peptide)
peptide: H[Aib]EGTFTSDVSK([Gly-Ser-Ser-Gly-Ser-Ser-Gly-Ser-Ser-Gly-Ser-Ser-γGlu-Undecanoyl(11-OPh(4-COOH))])YLEGQAAK([Gly-Ser-Ser-Gly-Ser-Ser-Gly-Ser-Ser-Gly-Ser-Ser-γGlu-Undecanoyl(11-OPh(4-COOH))])EFIAWLVQGRG
B4: GLP-1 derivative of Example 4 (Chem. 23), N^eps26,N^eps37-diacylated [Arg^34,Lys^37]-GLP-1-(7-37)-peptidyl-Glu (peptide)
peptide: HAEGTFTSDVSSYLEGQAAK([Gly-Ser-Ser-Gly-Ser-Ser-γGlu-Decanoyl(10-(4-HOOC-PhO))])EFIAWLVRGRK([Gly-Ser-Ser-Gly-Ser-Ser-γGlu-Decanoyl(10-(4-HOOC-PhO))])E
B5: Comparative compound of Example 3a: Compound of Example 33, Chem. 52, in WO 2011/080103 (peptide)
peptide: HAEGTFTSDVSSYLEGQAAK([AEEA-AEEA-γGlu-Decanoyl(10-(4-HOOC-PhO))])EFIAHLVQGRK([AEEA-AEEA-γGlu-Decanoyl(10-(4-HOOC-PhO))])
B6: Comparative compound of Example 4a: Compound of Example 46, Chem. 65, in WO 2011/080103 (peptide)
peptide: HAEGTFTSDVSSYLEGQAAK([AEEA-AEEA-γGlu-Decanoyl(10-(4-HOOC-PhO))])EFIAWLVRGRK([AEEA-AEEA-γGlu-Decanoyl(10-(4-HOOC-PhO))])E
B7: GLP-1 derivative of Example 16 (Chem. 35), N^eps18,N^eps26-diacylated [Aib^8,Lys^18,Gln^34]-GLP-1-(7-37)-peptide (peptide)
peptide: H[Aib]EGTFTSDVSK([Ser-Ser-Ser-Ser-Ser-Ser-γGlu-Undecanoyl(11-OPh(4-COOH))])YLEGQAAK([Ser-Ser-Ser-Ser-Ser-Ser-γGlu-Undecanoyl(11-OPh(4-COOH))])EFIAWLVQGRG
B8: GLP-1 derivative of Example 19 (Chem. 38), N^eps18,N^eps26-diacylated [Aib^8,Lys^18,Gln^34]-GLP-1-(7-37)-peptide (peptide)
peptide: H[Aib]EGTFTSDVSK([εLys-Ser-Ser-Ser-Ser-Ser-Ser-γGlu-Undecanoyl(11-OPh(4-COOH))])YLEGQAAK([εLys-Ser-Ser-Ser-Ser-Ser-Ser-γGlu-Undecanoyl(11-OPh(4-COOH))])EFIAWLVQGRG
B9: GLP-1 derivative of Example 13 (Chem. 32), N^eps18,N^eps26-diacylated [Aib^8,Lys^18,Gln^34]-GLP-1-(7-37)-peptide (peptide)
peptide: H[Aib]EGTFTSDVSK([Gly-Ser-Ser-Gly-Ser-Ser-γGlu-Dodecanoyl(12-OPh(4-COOH))])YLEGQAAK([Gly-Ser-Ser-Gly-Ser-Ser-γGlu-Dodecanoyl(12-OPh(4-COOH))])EFIAWLVQGRG
B10: GLP-1 derivative of Example 15 (Chem. 34), N^eps18,N^eps26-diacylated [Aib^8,Lys^18,Gln^34]-GLP-1-(7-37)-peptide (peptide)
peptide: H[Aib]EGTFTSDVSK([Ala-Ser-Ser-Ala-Ser-Ser-γGlu-Undecanoyl(11-OPh(4-COOH))])YLEGQAAK([Ala-Ser-Ser-Ala-Ser-Ser-γGlu-Undecanoyl(11-OPh(4-COOH))])EFIAWLVQGRG
B11: GLP-1 derivative of Example 21 (Chem. 40), N^eps18,N^eps26-diacylated [Aib^8,Lys^18,Gln^34]-GLP-1-(7-37)-peptide (peptide)
peptide: H[Aib]EGTFTSDVSK([εLys-Gly-Ser-Ser-Gly-Ser-Ser-Gly-Ser-Ser-Gly-Ser-Ser-Gly-Ser-Ser-Gly-Ser-Ser-γGlu-Undecanoyl(11-OPh(4-COOH))])YLEGQAAK([εLys-Gly-Ser-Ser-Gly-Ser-Ser-Gly-Ser-Ser-Gly-Ser-Ser-Gly-Ser-Ser-Gly-Ser-Ser-γGlu-Undecanoyl(11-OPh(4-COOH))])EFIAWLVQGRG
B12: GLP-1 derivative of Example 12 (Chem. 31), N^eps26,N^eps37-diacylated [Aib^8,His^34,Lys^37]-GLP-1-(7-37)-peptide (peptide)
peptide: HXEGTFTSDVSSYLEGQAAKEFIAWLVHGRK
modifications: Aib at 8; eps-amino of Lys26 and Lys37 each acylated with 13-carboxytridecanoyl-gGlu-Ser-Ser-Gly-Ser-Ser-Gly
B13: GLP-1 derivative of Example 26 (Chem. 45), N^eps26,N^eps37-diacylated [Imp^7,Aib^8,Arg^34,Lys^37]-GLP-1-(7-37)-peptide (peptide)
peptide: B12 peptide with H1X, H28R
modifications: Imp (imidazopropionyl, des-amino histidine) at 7; Aib at 8; eps-amino of Lys26 and Lys37 each acylated with 12-(4-carboxyphenoxy)dodecanoyl-gGlu-Ser-Ser-Gly-Ser-Ser-Gly
B14: GLP-1 derivative of Example 24 (Chem. 43), N^eps26,N^eps37-diacylated [Aib^8,Arg^34,Lys^37]-GLP-1-(7-37)-peptide (peptide)
peptide: B12 peptide with H28R
modifications: Aib at 8; eps-amino of Lys26 and Lys37 each acylated with 12-(4-carboxyphenoxy)dodecanoyl-gGlu-Ser-Ser-Gly-Ser-Ser-Gly
B15: GLP-1 derivative of Example 29 (Chem. 48), N^eps26,N^eps37-diacylated [Aib^8,Arg^34,Lys^37]-GLP-1-(7-37)-peptide (peptide)
peptide: B12 peptide with H28R
modifications: Aib at 8; eps-amino of Lys26 and Lys37 each acylated with 12-(4-carboxyphenoxy)dodecanoyl-gGlu-Ser-Gly-Ser-eps-Lys
B16: GLP-1 derivative of Example 31 (Chem. 50), N^eps26,N^eps37-diacylated [Aib^8,Arg^34,Lys^37]-GLP-1-(7-37)-peptide (peptide)
peptide: B12 peptide with H28R
modifications: Aib at 8; eps-amino of Lys26 and Lys37 each acylated with 11-(4-carboxyphenoxy)undecanoyl-gGlu-Ser-Ser-Gly-Ser-Ser-Gly

target: T1, human GLP-1 receptor (human, UniProt P43220 24-463); assay: SPA, displacement of 125I-GLP-1(7-36)NH2, BHK membranes, 0.001% HSA
T1 construct: whole, on cells; also called the receptor; hGLP-1
Procedure: Test compounds, membranes, SPA-particles and [¹²⁵I] ]-GLP-1(7-36)NH₂ were diluted in assay buffer. 50 ul (micro liter) buffer (“low albumin” experiment containing 0.001% HSA) was added to Optiplate, and 25 ul of test compounds were added. 5-10 μg membrane protein/sample was added (50 μl) corresponding to 0.1-0.2 mg protein/ml (to be preferably optimised for each membrane preparation). SPA-particles (Wheatgerm agglutinin SPA beads, Perkin Elmer, #RPNQ0001) were added in an amount of 0.5 mg/well (50 μl). The incubation was started with [¹²⁵I]-GLP-1]-(7-36)NH₂ (final concentration 0.06 nM corresponding to 49.880 DPM, 25 μl). The plates were sealed with PlateSealer and incubated for 120 minutes at 30° C. while shaking. The plates were centrifuged (1500 rpm, 10 min) and counted in Topcounter.
The IC₅₀ value was read from the curve as the concentration which displaces 50% of ¹²⁵I-GLP-1 from the receptor.

Binder | IC50 [nM]
B1 | 48.4
B2 | 1.63
B3 | 1.34
B4 | 0.58
B5 | 51.5
B6 | 2.77
B7 | 0.54
B8 | 0.42
B9 | 0.84
B10 | 0.5
B11 | 4.87
B12 | 4.61
B13 | 0.53
B14 | 0.19
B15 | 0.27
B16 | 0.17

target: T1, human GLP-1 receptor; assay: cell-based or functional assay

Binder | In vitro potency (CRE-luciferase) low albumin EC50 [nM]
B1 | 0.174
B2 | 0.0053
B3 | 0.029
B4 | 0.008
B5 | 0.124
B6 | 0.04
B7 | 0.0083
B8 | 0.011
B9 | 0.0096
B10 | 0.015
B11 | 0.047
B12 | 0.0098
B13 | 0.0058
B14 | 0.0052
B15 | 0.005
B16 | 0.0028

target: T1, human GLP-1 receptor; assay: cell-based or functional assay; remark: another data set of the same source

Binder | In vitro potency (AlphaScreen cAMP; membranes) EC50 [nM]
B1 | 1.14
B2 | 0.095
B3 | 0.171
B4 | 0.048
B5 | 0.506
B6 | 0.101
B7 | 0.146
B8 | 0.181
B9 | 0.314
B10 | 0.183
B11 | 0.486
B12 | 0.145
B13 | 0.446
B14 | 0.166
B15 | 0.238
B16 | 0.027
